The values below come from patent US20220185863A1, “COMBINATION THERAPIES” (Shattuck Labs, Inc., priority 2019, published 2022).

The test system of experiment [1] is CT26 tumor. As to the kind of experiment: In vivo anti-tumor activity of TIGIT-Fc-LIGHT chimeric protein and anti-PD1 antibody in mice challenged with CT26 tumor. Also on record: species or system mouse. The settings on record: monotherapy on days 1, 3, and 6, compared to vehicle only-treated mice. The text has this: FIG. 5B is a Kaplan Meyer plot of survival and statistics of the CT26 tumor experiment of FIG. 5A. […] FIG. 5C and FIG. 5D includes data relevant to the graphs of FIG. 5A and FIG. 5B.

Experiment [2] relates to tumor infiltrating lymphocytes (TIL) of CT26 (colorectal carcinoma) tumors. As to the kind of experiment: Immune phenotyping of tumor infiltrating lymphocytes (TIL) by flow cytometry. Type of experiment: in vivo, BALB/C mice. The settings on record: IP days 0, 3, 6; 300 mg ARC, 100 mg anti-PD-1; tumor collected day 7. From the text: FIG. 6A to FIG. 6G show the results of immune phenotyping of the tumor infiltrating lymphocytes (TIL) in BALB/C mice harboring CT26 (colorectal carcinoma) tumor allografts treated with ARC (TIGIT-Fc-OX40L or TIGIT-Fc-LIGHT) alone or the combination with anti-PD-1 (clone RMP1-14) antibody. The fractions (expressed as percentages) of total CD8^+ cells (FIG. 6A), total Perforin CD8^+ cells (FIG. 6B), total IFNγ^+ CD8^+ cells (FIG. 6C), total AH1-tetramer CD8^+ cells (antigen-specific CD8^+ cells) (FIG. 6D), total CD4±cells (FIG. 6E), total NKP46^+ NK cells (FIG. 6F) and total IFNγ±(NKP46^+ NK) cells (FIG. 6G) in the indicated cell populations in the dissociated tumor tissue as determined by flow cytometry analyses.
BALB/C mice were inoculated with CT26 (colorectal carcinoma) tumors, and when starting tumor volumes reached 30-60 mm^3 (indicating day 0), treatment was begun. Mice were treated via intraperitoneal (IP) injection on days 0, 3, and 6 with […] of either ARC (TIGIT-Fc-OX40L or TIGIT-Fc-LIGHT) or the combination of each ARC with […] of anti-PD-1 (clone RMP1-14). On day 7, mice were euthanized, tumor tissue was collected and dissociated, and analyzed by flow cytometry and calculated as percent cell types. The total % of CD8+ T cells detected in the tumor are similar between treatment groups (FIG. 6A).
The immunodominant CD8+ T cell response against CT26 carcinoma cells is directed against a tumor/self-antigen, GP70423-431, also known as AH1. To evaluate the T cell response against CT26, total AH1-tetramer CD8^+ cells were quantitated.
Other relevant cell types, including total % of CD4+ T cells, NKP46^+ NK cells, including the total IFNγ±NKP46^+ NK cells in the tumors were also quantitated. […] The IFNγ±cells were quantitated among NKP46^+ NK cells.
(In flow cytometry, cells or beads pass a laser one at a time.)

Experiment [3] relates to tumors. As to the kind of experiment: In vivo anti-tumor activity of TIGIT-Fc-OX40L chimeric protein and anti-CTLA-4 antibody in tumor-inoculated mice. On the procedure:
The in vivo ability of combinations of the TIGIT-Fc-OX40L chimeric protein with anti-CTLA-4 antibodies (FIG. 3A to FIG. 3C) to target and treat tumors were determined.
Mice were inoculated with tumors and were treated with a vehicle, an antibody, the TIGIT-Fc-OX40L chimeric protein, or combinations of the TIGIT-Fc-OX40L chimeric protein and an anti-CTLA-4 antibody; in the combinations, the TIGIT-Fc-OX40L chimeric protein was administered before the antibody, the TIGIT-Fc-OX40L chimeric protein was administered after the antibody, or the TIGIT-Fc-OX40L chimeric protein was administered with the antibody. See, FIG. 3A for the dose schedules.
FIG. 3C includes data relevant to the graphs of FIG. 3A and FIG. 3B.

For experiment [4], the system named is tumors. As to the kind of experiment: In vivo anti-tumor activity of TIGIT-Fc-OX40L chimeric protein and anti-PD-1 antibody in tumor-inoculated mice. The method, then: The in vivo ability of combinations of the TIGIT-Fc-OX40L chimeric protein with anti-PD-1 antibodies (FIG. 4A to FIG. 4D) to target and treat tumors were determined.
Mice were inoculated with tumors and were treated with a vehicle, an antibody, the TIGIT-Fc-OX40L chimeric protein, or combinations of the TIGIT-Fc-OX40L chimeric protein and an anti-PD-1 antibody; in the combinations, the TIGIT-Fc-OX40L chimeric protein was administered before the antibody, the TIGIT-Fc-OX40L chimeric protein was administered after the antibody, or the TIGIT-Fc-OX40L chimeric protein was administered with the antibody.
FIG. 4C and FIG. 4D include data relevant to the graphs of FIG. 4A and FIG. 4B.

The mark [5] stands for this setting: administered on days 7, 9, and 11, compared to vehicle only-treated mice and to days 12, 14, 16 schedule.
Setting [6] is: administered on days 12, 14, and 16, compared to vehicle only-treated mice.
[7] abbreviates: compared to the dosing regimen-matched αCTLA antibody-treated mice.
The mark [8] stands for this setting: compared to the dosing regimen-matched αPD-1 antibody-treated mice.

B1: TIGIT-Fc-LIGHT: chimeric protein: extracellular domain of TIGIT, hinge-CH2-CH3 Fc linker, extracellular domain of LIGHT (SEQ ID NO: 61) (protein)
chain: MEWSWVFLFFLSVTTGVHSMMTGTIETTGNISAEKGGSIILQCHLSSTTAQVTQVNWEQQDQLLAICNADLGWHISPSFKDRVAPGPGLGLTLQSLTVNDTGEYFCIYHTYPDGTYTGRIFLEVLESSVAEHGARFQIPSKYGPPCPPCPAPEFLGGPSVFLFPPKPKDQLMISRTPEVTCVVVDVSQEDPEVQFNWYVDGVEVHNAKTKPREEQFNSTYRVVSVLTVLHQDWLSGKEYKCKVSSKGLPSSIEKTISNATGQPREPQVYTLPPSQEEMTKNQVSLTCLVKGFYPSDIAVEWESNGQPENNYKTTPPVLDSDGSFFLYSRLTVDKSRWQEGNVFSCSVLHEALHNHYTQKSLSLSLGKIEGRMDLQLHWRLGEMVTRLPDGPAGSWEQLIQERRSHEVNPAAHLTGANSSLTGSGGPLLWETQLGLAFLRGLSYHDGALVVTKAGYYYIYSKVQLGGVGCPLGLASTITHGLYKRTPRYPEELELLVSQQSPCGRATSSSRVWWDSSFLGGVVHLEAGEKVVVRVLDERLVRLRDGTRSYFGAFMV
B1: in experiment [1], the survival entry is “extended survival” and the tumor development entry is “slower tumor development”. In addition, in experiment [2], the “total AH1-tetramer CD8+ cells among the total CD8+ cells” value is “increased”, the “total CD4+ cells among the total mononuclear cells” value is listed as “increased”, the “total IFNγ+ CD8+ cells among the total CD8+ cells” value was “increased” and the “total IFNγ+ cells among the total NKP46+ NK cells” value was “increased”. In experiment [2], the “total NKP46+ NK cells among the total mononuclear cells” value is given as “increased” and the “total Perforin CD8+ cells among the total CD8+ cells” value was “increased”.

B2: TIGIT-Fc-OX40L: chimeric protein: extracellular domain of TIGIT, hinge-CH2-CH3 Fc linker, extracellular domain of OX40L (SEQ ID NO: 60) (protein)
chain: MMTGTIETTGNISAEKGGSIILQCHLSSTTAQVTQVNWEQQDQLLAICNADLGWHISPSFKDRVAPGPGLGLTLQSLTVNDTGEYFCIYHTYPDGTYTGRIFLEVLESSVAEHGARFQIPSKYGPPCPPCPAPEFLGGPSVFLFPPKPKDQLMISRTPEVTCVVVDVSQEDPEVQFNWYVDGVEVHNAKTKPREEQFNSTYRVVSVLTVLHQDWLSGKEYKCKVSSKGLPSSIEKTISNATGQPREPQVYTLPPSQEEMTKNQVSLTCLVKGFYPSDIAVEWESNGQPENNYKTTPPVLDSDGSFFLYSRLTVDKSRWQEGNVFSCSVLHEALHNHYTQKSLSLSLGKIEGRMDQVSHRYPRIQSIKVQFTEYKKEKGFILTSQKEDEIMKVQNNSVIINCDGFYLISLKGYFSQEVNISLHYQKDEEPLFQLKKVRSVNSLMVASLTYKDKVYLNVTTDNTSLDDFHVNGGELILIHQNPGEFCVL
Take B2: in experiment [3] (setting [5]), the survival result is given as “extended survival” and the tumor development entry was “slower tumor development”. In addition, in experiment [3] (setting [6]), the survival result was “extended survival” and the tumor development result is on record as “slower tumor development”. Further, in experiment [3] (setting [7]), the survival entry is “extended survival” and the tumor development result is recorded as “slower tumor development”. In addition, in experiment [4] (setting [5]), the survival entry is “extended survival” and the tumor development entry is “slower tumor development”. Moreover, in experiment [4] (setting [6]), the survival entry is recorded as “extended survival” and the tumor development entry was “slower tumor development”. Also, in experiment [4] (setting [8]), the survival result is “extended survival” and the tumor development entry is on record as “slower tumor development”. Also, in experiment [2], the “total AH1-tetramer CD8+ cells among the total CD8+ cells” value is listed as “increased”, the “total CD4+ cells among the total mononuclear cells” value is given as “increased”, the “total IFNγ+ CD8+ cells among the total CD8+ cells” value is reported as “increased” and the “total IFNγ+ cells among the total NKP46+ NK cells” value is given as “increased”. In experiment [2], the “total NKP46+ NK cells among the total mononuclear cells” value is on record as “increased” and the “total Perforin CD8+ cells among the total CD8+ cells” value is listed as “increased”.
